Assay [1] deals with HLA-PEPTIDE target G10: HLA-A*01:01_…, recombinant soluble complex (human, enzymatically biotinylated (BirA)). Kind of assay: phage display, scFv ELISA on pHLA against negative control pHLAs.
Assay [2] addresses T1, HLA-A*01:01_… (G2) presented on cells (human).
T1 construct: whole, on cells
Kind of assay: flow cytometry on pulsed K562 cells, against off target peptide [..] and unpulsed cells.

The target of assay [3] is T2, HLA-PEPTIDE target G2: HLA-A*01:01_…, recombinant soluble complex (human, enzymatically biotinylated (BirA)).
T2 construct: also called G2-pHLA
Description: BLI. On the technique in general: In BLI a coated tip is dipped into the sample, and binding shifts an interference pattern.

Assay [4] has as its target T2, HLA-PEPTIDE target G2: HLA-A*01:01_…, …. Kind of assay: BLI, antibody from 100 nM in 1:2 steps, 1:1 model; apparent KD.
The target of assay [5] is T3, HLA-B*35:01 (alpha chain with beta-2 microglobulin), recombinant (human).
T3 construct: also called HLA complex of the conditional ligand exchange / stability ELISA
Kind of assay: conditional ligand exchange, stability ELISA. A general note: ELISA stands for enzyme-linked immunosorbent assay.

The target of assay [6] is HLA-A*02:01 (alpha chain with beta-2 microglobulin), recombinant (human). Description: conditional ligand exchange, stability ELISA.

B1: scFv G10(5A08) (scFv, V domains shown)
VH: QVQLVQSGAEVKKPGSSVKVSCKASGGTFNNFAISWVRQAPGQGLEWMGGIIPIFDATNYAQKFQGRVTFTADESTSTAYMELSSLRSEDTAVYYCARGEYSSGFFFVGWFDLWGRGTQVTVSS
VL: not shown
notes: also called G10(5A8); scFv-G10-P5A08
Regarding B1, the binding result in assay [1] is reported as “binds”.

B2: 3-G2(1H11)-hOKT3 (bispecific antibody, human IgG1, kappa, N297Q)
chain: not shown
heavy: QVQLVQSGAEVKKPGASVKVSCKASGYTFTRYTMHWVRQAPGQGLEWMGYINPSRGYTNYNQKFKDRVTLTTDKSSSTAYMELSSLRSEDTAVYYCARYYDDHYSLDYWGQGTLVTVSSASTKGPSVFPLAPSSKSTSGGTAALGCLVKDYFPEPVTVSWNSGALTSGVHTFPAVLQSSGLYSLSSVVTVPSSSLGTQTYICNVNHKPSNTKVDKRVEPKSCDKTHTCPPCPAPELLGGPSVFLFPPKPKDTLMISRTPEVTCVVVDVSHEDPEVKFNWYVDGVEVHNAKTKPREEQYQSTYRVVSVLTVLHQDWLNGKEYKCKVSNKALPAPIEKTISKAKGQPREPQVCTLPPSREEMTKNQVSLSCAVKGFYPSDIAVEWESNGQPENNYKTTPPVLDSDGSFFLVSKLTVDKSRWQQGNVFSCSVMHEALHNRFTQKSLSLSPGK
light: DIQMTQSPSSLSASVGDRVTITCSASSSVSYMNWYQQKPGKAPKRLIYDTSKLASGVPSRFSGSGSGTDFTLTISSLQPEDFATYYCQQWSSNPFTFGQGTKLEIKRTVAAPSVFIFPPSDEQLKSGTASVVCLLNNFYPREAKVQWKVDNALQSGNSQESVTEQDSKDSTYSLSSTLTLSKADYEKHKVYACEVTHQGLSSPVTKSFNRGEC
notes: also called 3-hOKT3-G2(1H11)
In the case of B2, the binding result in assay [2] and in assay [3] was “binds” in each case.

B3: scFv G10(5C08) (scFv, V domains shown)
VH: QVQLVQSGAEVKKPGASVKVSCKASGYNFTGYYMHWVRQAPGQGLEWMGIIAPSDGSTNYAQKFQGRVTMTRDTSTSTVYMELSSLRSEDTAVYYCARETGDDAFDIWGQGTMVTVSS
VL: not shown
As for B3, in assay [1], the binding result is recorded as “binds”.

B4: 4-G2(1H11)-OKT3 (bispecific antibody, human IgG1, kappa, N297Q)
chain: not shown
heavy: not shown
light: QIVLTQSPAIMSASPGEKVTMTCSASSSVSYMNWYQQKSGTSPKRWIYDTSKLASGVPAHFRGSGSGTSYSLTISGMEAEDAATYYCQQWSSNPFTFGSGTKLEINRTVAAPSVFIFPPSDEQLKSGTASVVCLLNNFYPREAKVQWKVDNALQSGNSQESVTEQDSKDSTYSLSSTLTLSKADYEKHKVYACEVTHQGLSSPVTKSFNRGEC
notes: also called format #4 (scFv/scFv-Fab): scFv G2(1H11), Fab OKT3
B4: the Kd in assay [4] is 1.27 nM.

B5: peptide EVDPIGHVY (peptide)
peptide: EVDPIGHVY
notes: also called G5 peptide
As for B5, the binding result in assay [5] is “binds”.

B6: peptide LLASSILCA (peptide)
peptide: LLASSILCA
notes: also called G7 peptide
As to B6, in assay [6], the binding result is reported as “binds”.

Values taken from patent US20220162320A1 (published 2022).
